Results published in PMC6433694.

Columns and labels:
[1] = western blot of exogenous eIF4E, Huh7; settings: glycan lost; control: wild-type eIF4E
[2] = cycloheximide chase, western blot, Huh7; settings: glycan lost; control: wild-type eIF4E
[3] = Flag IP, anti-ubiquitin blot, MG132-treated Huh7; settings: glycan lost; control: wild-type eIF4E
[4] = western blot of eIF4E, Huh7 and PLC/PRF/5; settings: glycan lost; control: control shRNA

| Substance | expression_or_secretion [1] | degradation_or_half_life [2] | other: ubiquitination [3] | expression_or_secretion [4] |
| --- | --- | --- | --- | --- |
| eukaryotic initiation factor 4E (eIF4E): T177A | decreases | decreases | increases | – |
| eukaryotic initiation factor 4E (eIF4E): OGT shRNA1 / OGT shRNA2 | – | – | – | decreases |
| eukaryotic initiation factor 4E (eIF4E): T168A | decreases | decreases | increases | – |
| eukaryotic initiation factor 4E (eIF4E): T168,177A | decreases | decreases | increases | – |
